For 64 variants, self-cleavage results are on record in the RNAGym collection of RNA variant scans (doi:10.7554/elife.80360).

B1: HDV Ribozyme (parent)
chain: GGCCGGCAUGGUCCCAGCCUCCUCGCUGGCGCCGGCUGGGCAACAUUCCGAGGGGACCGUCCCCUCGGUAAUGGCGAAUGGGACCCA

The data set covers variants of B1. As to the kind of experiment: self-cleavage, relative activity (ratio to wild type); higher = more cleavage; co-transcriptional.
Consider GGCCGGCAUGGUCCCAGCCUCCUCGCUGGCGCCGGUUGUGCAACAUUCCGAGGGGACCGUCCCCUCGGUAAUGGCGAAUGGGACCCA, for which the self-cleavage amounted to 0.245.

In the case of GGCCGGCAUGGUCCCAGCCUCCUCGCUGGCGCCGGUUGAGCAACAUUCCGAGGGGACCGUCCCCUCGGUAAUGGCGAAUGGGACCCA, the self-cleavage is 0.

As for GGCCGGCAUGGUCCCAGCCUCCUCGCUGGCGCCGGUUGGGCAACAUUCCGAUGGGACCGUCCCCUCGGUAAUGGCGAAUGGGACCCA, the self-cleavage was determined as 0.72.

As for GGCCGGCAUGGUCCCAGCCUCCUCGCUGGCGCCGGUUGGGCAACAUUCCGAGGGGACCGUCACCUCGGUAAUGGCGAAUGGGACCCA, the self-cleavage worked out at 0.53.

As to GGCCGGCAUGGUCCCAGCCUCCUCGCUGGCGCCGGUUGGGCAACAUUCCGAGGGGAUCGUCCCCUCGGUAAUGGCGAAUGGGACCCA, the self-cleavage was determined as 0.679.

For GGCCGGCAUGGUCCCAGCCUCCUCGCUGGCGCCGGUUGGGCAACAUUCCGAGGGGACCGUCCCCUCGGUAAUGGCGAAUGCGACCCA, the self-cleavage worked out at 0.12.

GGCCGGCAUGGUCCCAGCCUCCUCGCUGGCGCCGGUUGGGCAACAUUCCGAGGGGACCGUCCCCUCGGUAAUGGCGAAUGUGACCCA: the self-cleavage turned out to be 0.29.

For the variant GGCCGGCAUGGUCCCAGCCUCCUCGCUGGCGCCGGUUGGGCAACAUUCCGAGAGGACCGUCCCCUCGGUAAUGGCGAAUGGGACCCA, the self-cleavage is 0.641.

As for GGCCGGCAUGGUCCCAGCCUCCUCGCUGGCGCCGGUUGGGCAACAUUCCGAGGGGACCGUCCCCUCGGUAAUGGCGAAUGGGUCCCA, the self-cleavage came out at 0.408.

Regarding GGCCGGCAUGGUCCCAGCCUCCUCGCUGGCGCCGGUUGGGCAACAUUCCGGGGGGACCGUCCCCUCGGUAAUGGCGAAUGGGACCCA, the self-cleavage is 0.652.

For GGCCGGCAUGGUCCCAGCCUCCUCGCUGGCGCCGGGUGGGCAACAUGCCGAGGGGACCGUCCCCUCGGUAAUGGCGAAUGGGACCCA, the self-cleavage worked out at 0.

GGCCGGCAUGGUCCCAGCCUCCUCGCUGGCGCCGGUUGGGCAACAUUCCGAGGGGACCAUCCCCUCGGUAAUGGCGAAUGGGACCCA: the self-cleavage was 0.704.

Regarding GGCCGGCAUGGUCCCAGCCUCCUCGCUGGCGCCGGCAGGGCAACAUUCCGGGGGGACCGUCCCCUCGGUAAUGGCGAAUGGGACCCA, the self-cleavage worked out at 0.302.

In the case of GGCCGGCAUGGUCCCAGCCUCCUCGCUGGCGCCGGUUGGGCAGCAUUCCGAGGGGACCGUCCCCUCGGUAAUGGCGAAUGGGACCCA, the self-cleavage was 0.196.

Take GGCCGGCAUGGUCCCAGCCUCCUCGCUGGCGCCGGCAGGGCAACAUUCCGAGGGGAUCGUCCCCUCGGUAAUGGCGAAUGGGACCCA: the self-cleavage is 0.146.

As to GGCCGGCAUGGUCCCAGCCUCCUCGCUGGCGCCGGCAGGGCAACAUUCCGAGGGGAACGUCCCCUCGGUAAUGGCGAAUGGGACCCA, the self-cleavage came out at 0.212.

For the variant GGCCGGCAUGGUCCCAGCCUCCUCGCUGGCGCCGGUUGGGCAACAUUCCGAGGGGACCGUCCCCUCGGGAAUGGCGAAUGGGACCCA, the self-cleavage is 0.519.

Consider GGCCGGCAUGGUCCCAGCCUCCUCGCUGGCGCCGGUUGGGCAACAUUCCGAGGGGACCGUCCCCUCGGUAAUGGCGAACGGGACCCA, for which the self-cleavage worked out at 0.201.

In the case of GGCCGGCAUGGUCCCAGCCUCCUCGCUGGCGCCGGUUGGGCAACAUUCCGAGGGGACCGUCCCCUCGGUAAUGGCGAAAGGGACCCA, the self-cleavage stood at 0.253.

With GGCCGGCAUGGUCCCAGCCUCCUCGCUGGCGCCGGCAGGGCAAGAUUCCGAGGGGACCGUCCCCUCGGUAAUGGCGAAUGGGACCCA, the self-cleavage stood at 0.0898.

Regarding GGCCGGCAUGGUCCCAGCCUCCUCGCUGGCGCCGGUUGGGCAACAUUCCGAGGGGACCGUCCCCUCGGUAAUGGCGAGUGGGACCCA, the self-cleavage amounted to 0.128.

As for GGCCGGCAUGGUCCCAGCCUCCUCGCUGGCGCCGGCAGGGCAACAUUCCGAGGGGACGGUCCCCUCGGUAAUGGCGAAUGGGACCCA, the self-cleavage was found to be 0.369.

As for GGCCGGCAUGGUCCCAGCCUCCUCGCUGGCGCCGGGUGGGCAACAUUCCGAGGGGACCGUCCCCUCGGCAAUGGCGAAUGGGACCCA, the self-cleavage turned out to be 0.155.

On to GGCCGGCAUGGUCCCAGCCUCCUCGCUGGCGCCGGGUGGGCAACAUUCCGAGGGGACCGUCCCCUCGGGAAUGGCGAAUGGGACCCA, for which the self-cleavage turned out to be 0.0554.

On to GGCCGGCAUGGUCCCAGCCUCCUCGCUGGCGCCGGGUGGGCAACAUUCCGAGGGGACCGUCCCCUCGGAAAUGGCGAAUGGGACCCA, for which the self-cleavage came to 0.229.

Take GGCCGGCAUGGUCCCAGCCUCCUCGCUGGCGCCGGGUGGGCAACAUUCCGAGGGGACCGUCCCCUCGGUAAGGGCGAAUGGGACCCA: the self-cleavage amounted to 0.151.

With GGCCGGCAUGGUCCCAGCCUCCUCGCUGGCGCCGGCAGGGCAACAUUCCGAGGGGACCGUCCCCUCGGUAAUGGCGACUGGGACCCA, the self-cleavage is 0.0997.

In the case of GGCCGGCAUGGUCCCAGCCUCCUCGCUGGCGCCGGCAGGGCAACAUUCCGAGGGGACCGUCCCCUCGGUAAUGGCGAUUGGGACCCA, the self-cleavage came out at 0.0369.

As for GGCCGGCAUGGUCCCAGCCUCCUCGCUGGCGCCGGCAGGGCAACAUUCCGAGGGGACCGUCCUCUCGGUAAUGGCGAAUGGGACCCA, the self-cleavage amounted to 0.339.

For GGCCGGCAUGGUCCCAGCCUCCUCGCUGGCGCCGGUUGGGCAACAUUCCGAGGGGACCGUCCUCUCGGUAAUGGCGAAUGGGACCCA, the self-cleavage is 0.904.

For the variant GGCCGGCAUGGUCCCAGCCUCCUCGCUGGCGCCGGCAGGGCAACAUUCCGAGGGGACCGUCCCCUCGGUAUUGGCGAAUGGGACCCA, the self-cleavage was determined as 0.394.

In the case of GGCCGGCAUGGUCCCAGCCUCCUCGCUGGCGCCGGCAGGGCAACAUUCCGAGGGGACCGUCCCCUCGGUACUGGCGAAUGGGACCCA, the self-cleavage stood at 0.19.

Consider GGCCGGCAUGGUCCCAGCCUCCUCGCUGGCGCCGGCAGGGUAACAUUCCGAGGGGACCGUCCCCUCGGUAAUGGCGAAUGGGACCCA, for which the self-cleavage is 0.403.

For GGCCGGCAUGGUCCCAGCCUCCUCGCUGGCGCCGGUUGGGCAACAUUCCGAGGGGGCCGUCCCCUCGGUAAUGGCGAAUGGGACCCA, the self-cleavage turned out to be 0.628.

Regarding GGCCGGCAUGGUCCCAGCCUCCUCGCUGGCGCCGGCAGGGCAACAUUCCGAGGGGACCGUCCCCUAGGUAAUGGCGAAUGGGACCCA, the self-cleavage is 0.29.

For the variant GGCCGGCAUGGUCCCAGCCUCCUCGCUGGCGCCGGCAGGGCAACAUUCCGAGGGGACCGUCCCCUUGGUAAUGGCGAAUGGGACCCA, the self-cleavage is 0.314.

In the case of GGCCGGCAUGGUCCCAGCCUCCUCGCUGGCGCCGGUUGGGCAACAUUCCGAGGGGACCGUCCCCUCGGUAAUGGCGAAUGGGACCAA, the self-cleavage stood at 0.747.

GGCCGGCAUGGUCCCAGCCUCCUCGCUGGCGCCGGUUGGGCAACAUUCCGAGGGGACCGUCCCCUCGGUAAUGGCGAAUGGGACCGA: the self-cleavage worked out at 0.703.

For GGCCGGCAUGGUCCCAGCCUCCUCGCUGGCGCCGGGUGGGCAACAGUCCGAGGGGACCGUCCCCUCGGUAAUGGCGAAUGGGACCCA, the self-cleavage is 0.0692.

Turning to GGCCGGCAUGGUCCCAGCCUCCUCGCUGGCGCCGGGCGGGCAACAUUCCGAGGGGACCGUCCCCUCGGUAAUGGCGAAUGGGACCCA, the self-cleavage turned out to be 0.158.

For the variant GGCCGGCAUGGUCCCAGCCUCCUCGCUGGCGCCGGUUGGGCAACAUUCCGAGGAGACCGUCCCCUCGGUAAUGGCGAAUGGGACCCA, the self-cleavage came out at 0.494.

For GGCCGGCAUGGUCCCAGCCUCCUCGCUGGCGCCGGUUGGGCAACAUUCCGAGGGGACCGUCCCCUCAGUAAUGGCGAAUGGGACCCA, the self-cleavage stood at 0.712.

Regarding GGCCGGCAUGGUCCCAGCCUCCUCGCUGGCGCCGGUUGGGCAACAUUCCGAGGGGACCGUCCCCUCUGUAAUGGCGAAUGGGACCCA, the self-cleavage was determined as 0.431.

For GGCCGGCAUGGUCCCAGCCUCCUCGCUGGCGCCGGGUGGGCAACAUUCCGAGGGGACCGUCCCCUCGGUAAUGGCGAAGGGGACCCA, the self-cleavage came to 0.0437.

Regarding GGCCGGCAUGGUCCCAGCCUCCUCGCUGGCGCCGGUUGGGCAACAUUCCGAGGGGACCGUCCCUUCGGUAAUGGCGAAUGGGACCCA, the self-cleavage came out at 0.628.

Take GGCCGGCAUGGUCCCAGCCUCCUCGCUGGCGCCGGUUGGGCAACAUUCCGAGGGAACCGUCCCCUCGGUAAUGGCGAAUGGGACCCA: the self-cleavage was 0.612.

With GGCCGGCAUGGUCCCAGCCUCCUCGCUGGCGCCGGUUGGGCAACAUUCCGAGGGGACCGUCCCCUCGGUAACGGCGAAUGGGACCCA, the self-cleavage is 0.102.

For GGCCGGCAUGGUCCCAGCCUCCUCGCUGGCGCCGGUUGGGCAACAUUCCGAGGGGACCGUCCCCUCGGUAAGGGCGAAUGGGACCCA, the self-cleavage was determined as 0.431.

With GGCCGGCAUGGUCCCAGCCUCCUCGCUGGCGCCGGCAGGGCAACAUUCCGAGGGGACCGUCACCUCGGUAAUGGCGAAUGGGACCCA, the self-cleavage worked out at 0.212.

On to GGCCGGCAUGGUCCCAGCCUCCUCGCUGGCGCCGGCAGGGCAACAUUCCGAGGGGACCGUCUCCUCGGUAAUGGCGAAUGGGACCCA, for which the self-cleavage was 0.104.

For the variant GGCCGGCAUGGUCCCAGCCUCCUCGCUGGCGCCGGGUGGGCAACAUUCCGAGGGGACCGUCCCCCCGGUAAUGGCGAAUGGGACCCA, the self-cleavage was found to be 0.18.

As for GGCCGGCAUGGUCCCAGCCUCCUCGCUGGCGCCGGUUGGGCAACAUUCCUAGGGGACCGUCCCCUCGGUAAUGGCGAAUGGGACCCA, the self-cleavage was found to be 0.841.

Regarding GGCCGGCAUGGUCCCAGCCUCCUCGCUGGCGCCGGUUGGGCAACAUUCCGAGGGGACCGUCCCCUCGGUAAUGGUGAAUGGGACCCA, the self-cleavage stood at 0.244.

For GGCCGGCAUGGUCCCAGCCUCCUCGCUGGCGCCGGUUGGGCAACAUUGCGAGGGGACCGUCCCCUCGGUAAUGGCGAAUGGGACCCA, the self-cleavage was determined as 0.831.

For the variant GGCCGGCAUGGUCCCAGCCUCCUCGCUGGCGCCGGCAGGGCUACAUUCCGAGGGGACCGUCCCCUCGGUAAUGGCGAAUGGGACCCA, the self-cleavage came to 0.131.

Consider GGCCGGCAUGGUCCCAGCCUCCUCGCUGGCGCCGGCAGGGCCACAUUCCGAGGGGACCGUCCCCUCGGUAAUGGCGAAUGGGACCCA, for which the self-cleavage amounted to 0.246.

As to GGCCGGCAUGGUCCCAGCCUCCUCGCUGGCGCCGGUUGGGCAACAAUCCGAGGGGACCGUCCCCUCGGUAAUGGCGAAUGGGACCCA, the self-cleavage amounted to 0.462.

In the case of GGCCGGCAUGGUCCCAGCCUCCUCGCUGGCGCCGGUUGGGCAACAUUCCGAGGGGACGGUCCCCUCGGUAAUGGCGAAUGGGACCCA, the self-cleavage was 0.759.

On to GGCCGGCAUGGUCCCAGCCUCCUCGCUGGCGCCGGCAGGGCAACAUUCAGAGGGGACCGUCCCCUCGGUAAUGGCGAAUGGGACCCA, for which the self-cleavage stood at 0.161.

Consider GGCCGGCAUGGUCCCAGCCUCCUCGCUGGCGCCGGUUGGGCCACAUUCCGAGGGGACCGUCCCCUCGGUAAUGGCGAAUGGGACCCA, for which the self-cleavage came to 0.155.

As to GGCCGGCAUGGUCCCAGCCUCCUCGCUGGCGCCGGCAGGGCAACAUUCCGAGGGGACCGUCCCCUCGGUAAUGGCGAAUGGGAGCCA, the self-cleavage worked out at 0.151.

Consider GGCCGGCAUGGUCCCAGCCUCCUCGCUGGCGCCGGCAGGGCAACAUUCCGAGGGGACCGUACCCUCGGUAAUGGCGAAUGGGACCCA, for which the self-cleavage stood at 0.138.

With GGCCGGCAUGGUCCCAGCCUCCUCGCUGGCGCCGGUUGGGCAACAUUCCGAGGGGACCGUCCCCUCGGUAGUGGCGAAUGGGACCCA, the self-cleavage stood at 0.653.

As to GGCCGGCAUGGUCCCAGCCUCCUCGCUGGCGCCGGCAGGGCAACAUUACGAGGGGACCGUCCCCUCGGUAAUGGCGAAUGGGACCCA, the self-cleavage was 0.208.
